In patent publication US20220227830A1, “QD DOSING OF GIP RECEPTOR AGONIST PEPTIDE COMPOUNDS AND USES THEREOF” (Takeda Pharmaceutical Company Limited, priority 2020, published 2022):
Starred links: 1 amine or outer side, 2 acyl side, 3 side chain; linkers in the order of their positions; H or OH if unused. Non-standard residues stand in square brackets, D forms with d. Groups on a side chain read outwards from the residue. No end group written: not given here. *: point of attachment. G2E3 = linker of 2 Gly and 3 Glu (read GGEEE); C16 diacid = O=C(O)CCCCCCCCCCCCCCC(=O)*; C15 diacid = O=C(O)CCCCCCCCCCCCCC(=O)*; γGlu = O=C(O)[C@H](CCC(=O)[*:2])N[*:1]; NMeY = CN[C@@H](Cc1ccc(O)cc1)C(=O)O; AEEA = NCCOCCOCC(=O)O; Aib = CC(C)(N)C(=O)O

T1: full-length human GIPR with an N-terminal FLAG tag (human, UniProt P48546 22-466)
T1 sequence (looked up): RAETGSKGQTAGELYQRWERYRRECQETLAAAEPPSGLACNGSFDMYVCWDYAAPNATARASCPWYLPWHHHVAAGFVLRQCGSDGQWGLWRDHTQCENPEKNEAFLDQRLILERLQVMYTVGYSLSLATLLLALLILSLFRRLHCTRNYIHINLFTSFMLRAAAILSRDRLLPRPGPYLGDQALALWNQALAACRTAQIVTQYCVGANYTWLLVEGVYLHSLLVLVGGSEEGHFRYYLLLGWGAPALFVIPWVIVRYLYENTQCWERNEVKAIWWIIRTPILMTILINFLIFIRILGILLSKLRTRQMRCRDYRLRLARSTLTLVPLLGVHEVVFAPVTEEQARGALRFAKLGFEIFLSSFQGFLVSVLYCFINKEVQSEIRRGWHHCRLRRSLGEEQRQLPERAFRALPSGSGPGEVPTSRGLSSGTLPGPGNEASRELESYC

B1: Compound 131 (peptide)
peptide: [NMeY][Aib]EGTFISDYSIALDRK([Gly-Gly-Gly-Gly-Gly-γGlu-C15 diacid])AQ[Aib]NFVNWLLAQSPSSGAPPPS-NH2
modifications: N-terminus assumed
SMILES: CC[C@H](C)[C@H](NC(=O)[C@H](CO)NC(=O)[C@H](Cc1ccc(O)cc1)NC(=O)[C@H](CC(=O)O)NC(=O)[C@H](CO)NC(=O)[C@@H](NC(=O)[C@H](Cc1ccccc1)NC(=O)[C@@H](NC(=O)CNC(=O)[C@H](CCC(=O)O)NC(=O)C(C)(C)NC(=O)[C@H](Cc1ccc(O)cc1)NC)[C@@H](C)O)[C@@H](C)CC)C(=O)N[C@@H](C)C(=O)N[C@@H](CC(C)C)C(=O)N[C@@H](CC(=O)O)C(=O)N[C@@H](CCCNC(=N)N)C(=O)N[C@@H](CCCCNC(=O)CNC(=O)CNC(=O)CNC(=O)CNC(=O)CNC(=O)CC[C@H](NC(=O)CCCCCCCCCCCCCC(=O)O)C(=O)O)C(=O)N[C@@H](C)C(=O)N[C@@H](CCC(N)=O)C(=O)NC(C)(C)C(=O)N[C@@H](CC(N)=O)C(=O)N[C@@H](Cc1ccccc1)C(=O)N[C@H](C(=O)N[C@@H](CC(N)=O)C(=O)N[C@@H](Cc1c[nH]c2ccccc12)C(=O)N[C@@H](CC(C)C)C(=O)N[C@@H](CC(C)C)C(=O)N[C@@H](C)C(=O)N[C@@H](CCC(N)=O)C(=O)N[C@@H](CO)C(=O)N1CCC[C@H]1C(=O)N[C@@H](CO)C(=O)N[C@@H](CO)C(=O)NCC(=O)N[C@@H](C)C(=O)N1CCC[C@H]1C(=O)N1CCC[C@H]1C(=O)N1CCC[C@H]1C(=O)N[C@@H](CO)C(N)=O)C(C)C
B2: Compound 12 (peptide)
peptide: [NMeY][Aib]EGTFISDYSIALDR[Aib]HQ[Aib]K([AEEA-AEEA-γGlu-C15 diacid])FVNWLLAQK-OH
modifications: N-terminus assumed
SMILES: CC[C@H](C)[C@H](NC(=O)[C@H](CO)NC(=O)[C@H](Cc1ccc(O)cc1)NC(=O)[C@H](CC(=O)O)NC(=O)[C@H](CO)NC(=O)[C@@H](NC(=O)[C@H](Cc1ccccc1)NC(=O)[C@@H](NC(=O)CNC(=O)[C@H](CCC(=O)O)NC(=O)C(C)(C)NC(=O)[C@H](Cc1ccc(O)cc1)NC)[C@@H](C)O)[C@@H](C)CC)C(=O)N[C@@H](C)C(=O)N[C@@H](CC(C)C)C(=O)N[C@@H](CC(=O)O)C(=O)N[C@@H](CCCNC(=N)N)C(=O)NC(C)(C)C(=O)N[C@@H](Cc1c[nH]cn1)C(=O)N[C@@H](CCC(N)=O)C(=O)NC(C)(C)C(=O)N[C@@H](CCCCNC(=O)COCCOCCNC(=O)COCCOCCNC(=O)CC[C@H](NC(=O)CCCCCCCCCCCCCC(=O)O)C(=O)O)C(=O)N[C@@H](Cc1ccccc1)C(=O)N[C@H](C(=O)N[C@@H](CC(N)=O)C(=O)N[C@@H](Cc1c[nH]c2ccccc12)C(=O)N[C@@H](CC(C)C)C(=O)N[C@@H](CC(C)C)C(=O)N[C@@H](C)C(=O)N[C@@H](CCC(N)=O)C(=O)N[C@@H](CCCCN)C(=O)O)C(C)C

Experiments:
[1] = target: T1, full-length human GIPR with an …; assay: cell-based or functional assay
[2] = target: full-length human GLP-1R with an N-terminal FLAG tag (human, UniProt P43220 24-463); assay: cell-based or functional assay

| Binder | Human GIPR cAMP, HEK293T EC50 [1] [nM] | Human GLP1R cAMP HEK293T EC50 [2] [nM] |
| --- | --- | --- |
| B1 | 0.0003 | 75.9 |
| Me-Y[Aib]EGTFISDYSIAKDR[Aib]AQ[Aib]DFVNWLLAQSPSSGAPPPG-OH (not fully specified (residues 1, 14)) [Compound 152] | 0.0003 | 302 |
| [NMeY][Aib]EGTFISDYSI[Aib]LDRK([AEEA-AEEA-γGlu-γGlu-C15 diacid])AQ[Aib]NFVNWLLAQRGGGGS-NH2 [Compound 135] | 0.0005 | 646 |
| Me-Y[Aib]EGTFISDYSI[Aib]KDR[Aib]AQ[Aib]DFVNWLLAQSPSSGAPPPS-OH (not fully specified (residues 1, 14)) [Compound 156] | 0.0002 | 89.1 |
| Me-Y[Aib]EGTFISDYSI[Aib]KDR[Aib]AQ[Aib]DFVNWLLAQSPSSGAPPPS-NH2 (not fully specified (residues 1, 14)) [Compound 140] | 0.0004 | 178 |
| Me-Y[Aib]EGTFISDYSIAKDR[Aib]AQ[Aib]DFVNWLLAQRPSSGAPPPS-OH (not fully specified (residues 1, 14)) [Compound 146] | 0.0005 | 112 |
| [NMeY][Aib]EGTFISDYSI[Aib]KDR[Aib]AQ[Aib]NFVNWLLAQRGGGGS-NH2 (not fully specified (residue 14)) [Compound 134] | 0.0004 | 1000 |
| [NMeY][Aib]EGTFISDYSIALDRK([Gly-Gly-Gly-Gly-Gly-γGlu-C15 diacid])AQ[Aib]DFVNWLLAQRPSSGAPPPS-NH2 [Compound 137] | 0.0002 | 479 |
| Me-Y[Aib]EGTFISDYSI[Aib]KDR[Aib]AQ[Aib]DFVNWLLAQSG-OH (not fully specified (residues 1, 14)) [Compound 141] | 0.0003 | 64.6 |
| Me-Y[Aib]EGTFISDYSIAKDR[Aib]AQ[Aib]DFVNWLLAQSPSSGAPPPS-OH (not fully specified (residues 1, 14)) [Compound 155] | 0.0003 | 295 |
| Me-Y[Aib]EGTFISDYSIAKDR[Aib]AQ[Aib]DFVNWLLAQSPSSGAPPPS-NH2 (not fully specified (residues 1, 14)) [Compound 151] | 0.0004 | 145 |
| [NMeY][Aib]EGTFISDYSIALDRK([G5-γGlu-C15DA])AQ[Aib]DFVNWLLAQSPSSGAPPPS-NH2 [Compound 132] | 0.0001 | 21.9 |
| B2 | 0.0002 | 363 |
| Me-Y[Aib]EGTFISDYSI[Aib]LDR[Aib]AQ[Aib]NFVNWLLAQK([AEEA-AEEA-γGlu-γGlu-C15 diacid])GGGGS-NH2 [Compound 136] | 0.0009 | 407 |
| Me-Y[Aib]EGTFISDYSIAKDR[Aib]AQ[Aib]NFVNWLLAQSPSSGAPPPS-OH (not fully specified (residues 1, 14)) [Compound 150] | 0.0003 | 30.2 |
| Me-Y[Aib]EGTFISDYSIAKDR[Aib]AQ[Aib]NFVNWLLAQRPSSGAPPPS-OH (not fully specified (residues 1, 14)) [Compound 147] | 0.0011 | 16.6 |
| Me-Y[Aib]EGTFISDYSI[Aib]K([AEEA-AEEA-γGlu-γGlu-C15 diacid])DR[Aib]AQ[Aib]NFVNWLLAQSPSSGAPPPS-NH2 [Compound 139] | 0.0004 | 1000 |
| Me-Y[Aib]EGTFISDYSIAKDS[Aib]AQ[Aib]NFVNWLLAQSPSSGAPPPS-NH2 (not fully specified (residues 1, 14)) [Compound 154] | 0.0003 | 288 |
| [NMeY][Aib]EGTFISDYSIALDR[Aib]KQ[Aib]NFVNWLLAQSGGGGS-NH2 (not fully specified (residue 18)) [Compound 133] | 0.0005 | 1000 |
| [NMeY][Aib]EGTFISDYSIALDR[Aib]AQ[Aib]K([AEEA-AEEA-γGlu-γGlu-C15 diacid])FVNWLLAQR (not fully specified (N-terminus, C-terminus)) [Compound 15] | 0.0003 | 155 |
| Me-Y[Aib]EGTFISDYSIAKDS[Aib]AQ[Aib]DFVNWLLAQRPSSGAPPPS-NH2 (not fully specified (residues 1, 14)) [Compound 153] | 0.0002 | 389 |
| [NMeY][Aib]EGTFISDYSI[Aib]LDRK([AEEA-AEEA-γGlu-γGlu-C16 diacid])AQ[Aib]NFVNWLLAQRPSSGAPPPS-NH2 [Compound 145] | 0.0004 | 912 |
| Me-Y[Aib]EGTFISDYSI[Aib]K([G2E3-C15 diacid])DR[Aib]AQ[Aib]NFVNWLLAQRPSSGAPPPS-NH2 [Compound 138] | 0.0004 | 1000 |
| Me-Y[Aib]EGTFISDYSIALDR[Aib]AQ[Aib]K([AEEA-AEEA-γGlu-γGlu-C15 diacid])FVNWLLAQSG-OH [Compound 149] | 0.0007 | 25.7 |
